Patent publication US20140161803A1 (IFOM Fondazione Istituo FIRC di Oncologia Molecolare, priority 2011, published 2014)
Marks after values point to notes of the source that are not given here.

Biological target: T1, human uPAR (Homo sapiens, UniProt Q03405)
T1 construct: the mature protein (Leu^1-Gly^283) in bold; expressed in transfected cells; host or cells: HEK293 Flp-In T-REx (293)
Assay: Real-time cell analyzer (xCELLigence) adhesion of 293/uPAR cells to VN
Type: cell-based
Conditions: cell index one hour after addition, highest antibody concentration 300 nM
Protocol: The electric impedance (termed cell index, CI) was recorded at regular intervals. […] The curves show the normalized cell index (NCI, Y-axis) as a function of time (X-axis). All cell indexes were normalized to the cell index measured immediately prior to antibody addition. To determine IC50 values (panel D), the NCI measured one hour after antibody addition were calculated in % of the NCI for untreated cells at the same time point (ΔNCI, Y-axis) and graphed in function of antibody concentration (X-axis).
96-well E-Plates were coated with VN (5 μg/ml) or FN (10 μg/ml) over night at 4° C. Plates were washed with PBS, added 0.1 ml serum free medium (DMEM, 0.1% bovine serum albumin, 25 mM Hepes pH 7.0) and transferred to real-time cell analyzer instrument (xCELLigence SP, Roche Corp.). […] The plate was returned to the instrument and the cell index recorded every three minutes. […] After another 1-1.5 hours of measurements the plate was removed again and wells added (20 μl) of antibody diluted to yield the indicated final concentrations. The plate was returned to the instrument and measurements conducted every 3 minutes for 2 hours and then every 15 minutes for 18 hours.

T1 sequence (Q03405 23-305): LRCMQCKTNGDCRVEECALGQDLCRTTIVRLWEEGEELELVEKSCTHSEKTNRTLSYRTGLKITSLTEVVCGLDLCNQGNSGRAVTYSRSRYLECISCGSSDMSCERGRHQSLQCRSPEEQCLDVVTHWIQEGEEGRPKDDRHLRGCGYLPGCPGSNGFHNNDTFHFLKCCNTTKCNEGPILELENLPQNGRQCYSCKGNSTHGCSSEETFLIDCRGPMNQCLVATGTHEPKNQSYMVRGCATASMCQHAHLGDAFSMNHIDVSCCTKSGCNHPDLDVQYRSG

SMB: uPAR-binding N-terminal domain of VN, natural competitive antagonist of the uPAR/VN-interaction (DQESCKGRCTEGFNVDKKCQCDELCSYYQSCCTDYTAECKPQVT) [reference compound]
% max inhibition (pro-uPA pre-treat.) (pro-uPA pre-treated 293/uPAR cells on VN): 100* %
% max inhibition (veh. pre-treat.) (vehicle pre-treated 293/uPAR cells on VN): 100* %
